Assay [1] concerns olivetolic acid. Nature of the assay: MPT fusions with GPS1.1 vs unfused MPTs, OA feed (Example 8, Table 9). Type of assay: cell-based, Yarrowia. The conditions noted are these: 2 mM olivetolic acid, 48 h quench; for CBGA / FCBGA: 2% glucose, strain sCL-SE-0128; for CBGA/FCBGA: product ratio. The procedure: As described below, plasmids pCL-SE-0406, pCL-SE-0664, pCL-SE-0663, pCL-SE-0662, pCL-SE-0380 (MPT4), pCL-SE-0337.MPT21, pCL-SE-0337.MPT26, and pCL-SE-0337.MPT31 were transformed into strain sCL-SE-0128. Multiple colonies per transformation were precultured for 48 h in YNB containing glucose (2%), casamino acids (0.5%), and MES (100 mM pH 6.5). Pre-culture was used to inoculate assay medium comprised of YNB containing glucose (2%), casamino acids (0.5%), MES (100 mM pH 6.5), and olivetolic acid (2 mM). Cultures were quenched with equal volume of ethanol after 48 h total growth and assayed for CBGA and FCBGA. Averages and standard deviations were calculated from replicates.
(§1) Overnight YPD (10 g/L yeast extract, 20 g/L peptone, 2% dextrose) cultures were inoculated from glycerol stocks of the appropriate strain and grown at 30° C. with 250 rpm shaking. Once cultures had reached an OD600 of 4-6, cultures were centrifuged at 500×g for 5 min, supernatants were discarded, and cell pellets were resuspended in equal volume of water. Resuspended cells were centrifuged at 500×g for 5 min, supernatants were discarded, and cells were resuspended in a volume (75 μL×OD×Vculture) of transformation cocktail (45% PEG-400, 0.1 M LiAc, 0.1 M DTT, and 25 ug/100 μL SS Salmon Sperm DNA). For each transformation, >1 μg of plasmid DNA was added to 55 μL cells/transformation cocktail and vortexed for 2 s. Transformations were incubated at 39° C. for 1 h with 250 rpm shaking. Transformations were resuspended in 750 μL YPD with 1 M sorbitol and recovered at 30° C. overnight with 250 rpm shaking. The next day, transformations were centrifuged at 500×g for 5 min, supernatants were discarded, and cell pellets were resuspended in 750 YPD. Resuspended transformations were plated on YPD with appropriate selection or YNBD (6.71 g/L yeast nitrogen base+nitrogen, 0.5% casamino acids, 2% dextrose) agar plates and grown at 30° C. for 2 days. Individual colonies were patched onto YPD plates with appropriate selection or YNBD plates and grown at 30° C. overnight. Patches were used to inoculate 0.5 mL YPD with appropriate selection or YNBD precultures in 96 w blocks and grown at 30° C. for 24-48 h with 1000 rpm shaking. For assays, 0.5 mL YPD with appropriate selection or YNBD cultures containing substrate were inoculated with 2 μL from precultures and grown at 30° C. for 2-4 days with 1000 rpm shaking with 2% glucose added every 24 h. Assay cultures were quenched by addition of 0.5 mL ethanol with 0.2% formic acid and 0.5 mg/mL pentyl-benzoic acid. Precipitates were pelleted by centrifuging at 4600×g for 10 min and then 200 μL was transferred to fresh plates, sealed, and analyzed via HPLC.
(§2) All samples were quenched with equal volume of EtOH containing 0.2 mg/mL internal standard (3,5-Diisopropyl-2-hydroxybenzoic acid CAS #2215-21-6) centrifuged, and clarified solutions were analyzed by HPLC-MS
(§3) • Column: 2.1×50 mm COSMOCORE PBr (Nacalai USA, Inc.) • Mobile Phase: A; 0.1% formic acid in water, B; 0.1% formic acid in acetonitrile • Flow: 0.45 mL/min • Temp: % 50 Celsius • Gradient: 20%B at 0 min, 70%B at 2.3 min, 89% B at 4.2 min, 20% B at 4.3 min, 20%B at 6 min

The subject of assay [2] is divarinic acid (DVA). Put plainly: Screening of MPT library hits in Yarrowia, DVA feed (Example 2). The format is cell-based. The conditions noted are these: DVA Feed (96 h); for CBGVA: 2 mM DVA, minimal media, 0.5% ethanol, strain sCL-SE-0128, product accumulated; for CBGVA/FCBGVA: product ratio. The procedure:
(§4) As described in detail below, plasmid pCL-SE-0337.MPT21,26,31 were transformed into strain sCL-SE-0128 and 4 separate colonies of each were patched and precultured for 48 h. Assay cultures consisted of minimal media with 100 mM MES pH 6.5, 0.5% ethanol and 2 mM olivetolic or divarinic acid (DVA). Cultures with olivetolic acid were quenched with equal volume of ethanol after 48 h total growth while cultures with DVA with quenched after 96 h total growth. Enzymes produced CBGA and FCBGA from olivetolic acid and CBGVA and FCBGVA from DVA. Averages and standard deviations were calculated from replicates.
as §1, §2, §3

The test system of assay [3] is olivetolic acid. Nature of the assay: Screening of MPT library hits in Yarrowia, OA feed (Example 2). The format is cell-based. The conditions noted are these: OA Feed (48 h); for CBGA: 2 mM olivetolic acid, minimal media, 0.5% ethanol, strain sCL-SE-0128, product accumulated; for CBGA/FCBGA: product ratio. The procedure:
as §4, §1, §2, §3

The test system of assay [4] is olivetolic acid. Nature of the assay: Fusions of different GPSs with MPT4, in vivo assay (Example 7). The format is cell-based, Yarrowia. As to conditions: 1 mM olivetolic acid, 72 h quench; for CBGA / FCBGA: 2% glycerol, strain sCL-SE-0128; for CBGA/FCBGA: product ratio. As to the method:
As described below, plasmids pCL-SE-0337, 0406, 0452 and 0453 were transformed into strain sCL-SE-0128. Multiple colonies per transformation were precultured for 24 h in YNB containing glycerol (2%), casamino acids (0.5%), and MES (100 mM pH 6.5). Pre-culture was used to inoculate assay medium comprised of YNB containing glycerol (2%), casamino acids (0.5%), MES (100 mM pH 6.5), and olivetolic acid (1 mM). Cultures were quenched after 72 h total growth and assayed for CBGA and F-CBGA. Averages and standard deviations were calculated from replicates.
However, sCL-SE-0128 expresses HMGR and GPS1.1 to increase intracellular GPP levels for prenylation of OA to CBGA. The plasmids that were transformed contain a gene expressing a fusion between two different GPSs and a prenyl-transferase. The same linker is used for all constructs. […] Additionally, as illustrated by GPS2 (pCL-SE-0453), certain GPS-MPT combinations result in very high CBGA/ FCBGA ratios.
as §1, §2, §3

The record followed here is patent publication US20240228986A1, “ENGINEERED CELLS, ENZYMES, AND METHODS FOR PRODUCING CANNABINOIDS” (priority 2021, published 2024).

B1: MPT31 (protein)
chain: MSDNSIATKILNFGHACWKLQRPYVVKGMISIACGLFGRELLHNTNLISWGLMWKAFFALVPILSFNFFAAIMNQIYDLHIDRINKPDLPLASGEISVNTAWIMSIIVALTGLIVTIKLKSAPLFVFIYIFGIFAGFAYSVPPIRWKQNPSTNFLITISSHVGLAFTSYYASRAALGLPFELRPSFTFLLAFMTVMGMTIAFAKDISDIEGDAKYGVSTVATKLGARNMTFVVSGVLLLNYLVSISIGIIWPQVFKSNIMILSHAILAFWLILQTRDFALTNYDPEAGRRFFEFIWLLYYAEYLVYVFI
modifications: MPT31 (recombinant membrane-bound prenyltransferase)
B1: in assay [1], the CBGA was 40 ± 12 µM, the FCBGA was determined as 3 ± 2 µM and the CBGA/FCBGA stood at 13.4. In assay [2], the CBGVA turned out to be 260 ± 79 µM and the CBGVA/FCBGVA is 22.6. Also, in assay [3], the CBGA turned out to be 175 ± 63 µM and the CBGA/FCBGA is 13.9.

B2: MPT26 (protein)
chain: MSDNSIATKILNFGHTCWKLQRPYVVKGMISIACGLFGKELLHNTNLISWGLMWKAFFALVPILSFNFFAAIMNQIYDVDIDRINKPDLPLVSGEMSIETAWILSIIVALTGLIVTIKLKSAPLFVFIYIFGIFAGFAYSVPPIRWKQNPSTNFLITISSHVGLAFTSYSATTSALGLPFVWRPAFSFIIAFMTVMGMTIAFAKDISDIEGDAKYGVSTVATKLGARNMTFVVSGVLLLNYVAAILAGIIWPQAFNSNVMLLSHAILAFWLILQTRDFALTNYDPEAGRRFFEFIWLLYYAEYFVYVFI
modifications: MPT26 (recombinant membrane-bound prenyltransferase)
As for B2, in assay [1], the CBGA worked out at 61 ± 5 µM, the FCBGA amounted to 14 ± 1 µM and the CBGA/FCBGA came out at 4.4. Moreover, in assay [2], the CBGVA was determined as 620 ± 134 µM and the CBGVA/FCBGVA is recorded as 13.7. In assay [3], the CBGA turned out to be 261 ± 62 µM and the CBGA/FCBGA was determined as 4.5.

B3: GPS3-F11-MPT4: fusion protein, SEQ ID NO: 20 (protein)
chain: MQLLNPPQKGKKAVEFDFNKYMDSKAMTVNEALNKAIPLRYPQKIYESMRYSLLAGGKRVRPVLCIAACELVGGTEELAIPTACAIEMIHTMSLMHDDLPCIDNDDLRRGKPTNHKIFGEDTAVTAGNALHSYAFEHIAVSTSKTVGADRILRMVSELGRATGSEGVMGGQMVDIASEGDPSIDLQTLEWIHIHKTAMLLECSVVCGAIIGGASEIVIERARRYARCVGLLFQVVDDILDVTKSSDELGKTAGKDLISDKATYPKLMGLEKAKEFSDELLNRAKGELSCFDPVKAAPLLGLADYVAFRQNGGAEAAAKEAAAKAGGSGGGSGGGGSGGSGGGGSGGGGSMSDNSIATKILNFGHTCWKLQRPYVVKGMISIACGLFGRELFNNRHLFSWGLMWKAFFALVPILSFNFFAAIMNQIYDVDIDRINKPDLPLVSGEMSIETAWILSIIVALTGLIVTIKLKSAPLFVFIYIFGIFAGFAYSVPPIRWKQYPFTNFLITISSHVGLAFTSYSATTSALGLPFVWRPAFSFIIAFMTVMGMTIAFAKDISDIEGDAKYGVSTVATKLGARNMTFVVSGVLLLNYLVSISIGIIWPQVFKSNIMILSHAILAFCLIFQTRELALANYASAPSRQFFEFIWLLYYAEYFVYVFI
modifications: GPS3-F11-MPT4, geranyl diphosphate synthase, membrane-bound prenyltransferase fusion protein
Regarding B3, in assay [4], the CBGA amounted to 255 ± 22 µM, the FCBGA is 41 ± 3 µM and the CBGA/FCBGA was found to be 6.2.

B4: GPS2-F11-MPT4: fusion protein, SEQ ID NO: 21 (protein)
chain: MKDVSLSSFDAHDLDLDKFPEVVRDRLTQFLDAQELTIADIGAPVTDAVAHLRSFVLNGGKRIRPLYAWAGFLAAQGHKNSSEKLESVLDAAASLEFIQACALIHDDIIDSSDTRRGAPTVHRAVEADHRANNFEGDPEHFGVSVSILAGDMALVWAEDMLQDSGLSAEALARTRDAWRGMRTEVIGGQLLDIYLESHANESVELADSVNRFKTAAYTIARPLHLGASIAGGSPQLIDALLHYGHDIGIAFQLRDDLLGVFGDPAITGKPAGDDIREGKRTVLLALALQRADKQSPEAATAIRAGVGKVTSPEDIAVITEHIRATGAEEEVEQRISQLTESGLAHLDDVDIPDEVRAQLRALAIRSTERRMGGAEAAAKEAAAKAGGSGGGSGGGGSGGSGGGGSGGGGSMSDNSIATKILNFGHTCWKLQRPYVVKGMISIACGLFGRELFNNRHLFSWGLMWKAFFALVPILSFNFFAAIMNQIYDVDIDRINKPDLPLVSGEMSIETAWILSIIVALTGLIVTIKLKSAPLFVFIYIFGIFAGFAYSVPPIRWKQYPFTNFLITISSHVGLAFTSYSATTSALGLPFVWRPAFSFIIAFMTVMGMTIAFAKDISDIEGDAKYGVSTVATKLGARNMTFVVSGVLLLNYLVSISIGIIWPQVFKSNIMILSHAILAFCLIFQTRELALANYASAPSRQFFEFIWLLYYAEYFVYVFI
modifications: GPS2-F11-MPT4, geranyl diphosphate synthase, membrane-bound prenyltransferase fusion protein
With B4, in assay [4], the CBGA was 282 ± 69 µM, the FCBGA is 11 ± 2 µM and the CBGA/FCBGA is 26.8.
